{"source": "patent US20030186258", "molecular_target": "fusion protein PNP20aa-hGH (UniProt P01241)", "sequence (P01241 27-217)": "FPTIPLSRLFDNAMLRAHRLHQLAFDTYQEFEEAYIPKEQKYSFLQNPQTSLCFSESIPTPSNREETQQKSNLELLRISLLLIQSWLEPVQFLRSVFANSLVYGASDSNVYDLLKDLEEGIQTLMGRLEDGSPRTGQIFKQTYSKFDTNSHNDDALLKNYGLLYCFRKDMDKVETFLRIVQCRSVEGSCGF", "data": [{"substance": "ss-Kex1 protease immobilised on Eupergit C250L resin", "values": [{"measurement": "digestion of the fused protein (SDS-PAGE), 15 hours", "result": "almost complete: digestion is obtained after 15 hours"}]}]}
